Where “and” joins values, the source holds several entries; their conditions need not be identical. Identical values can stand only once.
B1: CoV2-14 (antibody, V domains shown)
VH: EVQLQQSGPGLVKPSQTLSLTCAISGDSVSSNSAAWNWIRQSPSRGLEWLGRTYYRSKWYNDYAVSVKSRITINPDTSKNQFSLQLNSVTPEDTAVYYCAREEQQLVHDYYYYGMDVWGQGTMVTVSS
VL: QAVVTQPASVSGSPGQSITISCTGTSSDIGAYNYISWYQQHPGKAPKLIIYEVSNRPSGISYRFSGSKSGNTASLTISGLQAEDEANYYCSSYAGSISFGGGTKVTVL
B2: CoV2-06 (antibody, V domains shown)
VH: QVELQESGPGLVKPSGTLSLTCAVSGGSISSNNWWTWVRQPPGKGLEWIGEIHHSGGTNYNPSLKSRVTMSVDKSKNQFSLNLYSVTAADTAVYYCTRDRAGGTYSGFDFWGQGTLVTVSS
VL: QAVVTQPASVSGSPGQSITISCTGTSSDVGGYNYVSWYQQHPGKAPKLMIYDVSNRPSGVSNRFSGSKSGNTASLTISGLQAEDEADYYCSSYTSSSTVVFGGGTKVTVL

Assays:
[1] = molecular target: T1, His-tagged RBD (RBD-His) protein of SARS-CoV-2 (SARS-CoV-2, UniProt P0DTC2 319-541); assay: BLI
[2] = molecular target: T1, His-tagged RBD (RBD-His) protein of …; assay: BLI; remark: listed apart in the source

Binder	koff [1]	Kd [2]
B1	0.000222 s⁻¹ and 0.000552 s⁻¹	620 pM and 580 pM
B2		270 pM and 90 pM

Source: paper PMC9499943 (2022)
